The supplement of paper PMC10126150
± gives the standard deviation of the averaged measurements.

Tested on: ATP
Test: switch fluorescence ratio, 500 uM ATP over buffer (Cy3 cluster intensity, sum of 5 cycles each) (fold (ratio)); higher = stronger signal-on switching upon ATP binding; sequences stand for … in TCGTCGGCAGCGTCAGATGTGTATAAGAGACAGTTTTTTTTTTTTTTTTTTTTTTTTT…TC
Details: aptamer strand: ATP DNA aptamer (quencher-CACCTGGGGGAGTATTGCGGAGGAAGG + anchor), 100 nM annealed; ATP concentration: 500 uM
Summary of the method: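 Five buffer/ATP imaging cycles were run on Cy3-labelled switching-strand clusters on a modified Illumina MiSeq flow-cell, with NaOH stripping and re-annealing between cycles. In each cycle, clusters annealed to 100 nM quencher-labelled ATP aptamer were imaged in selection buffer, then after 15 min with 500 uM ATP at 22 °C. Per cluster, the fluorescence ratio is summed target-cycle over summed buffer-cycle Cy3 intensity, averaged per switch-domain sequence. Only clusters within 100-1000 RFU were kept.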
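Note: ATP exposure 15 min at 22 °C before imaging.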

| Sequence | switch fluorescence ratio |
| --- | --- |
| GCCTGCTTGC | 1.03 ± 0.053 |
| GCCTGGTTTT | 0.979 ± 0.024 |
| GCCTTAAAGG | 1.005 ± 0.0029 |
| GCCTTAACGG | 1.01 ± 0.021 |
| GCCTTACGGT | 1.04 ± 0.038 |
| GCCTTATATA | 0.9952 ± 0.0063 |
| GCCTTCAAGC | 1.04 ± 0.054 |
| GCCTTGATGG | 1.01 ± 0.021 |
| GCCTTGTTCA | 0.993 ± 0.022 |
| GCCTTTGGCA | 0.962 ± 0.013 |
| GCGAAAAAGG | 0.997 ± 0.035 |
| GCGAAAAGAA | 1.05 ± 0.054 |
| GCGAAAGGT | 0.9846 ± 0.0017 |
| GCGAAGGTCT | 1 ± 0.014 |
| GCGAATCGTA | 0.999 ± 0.049 |
| GCGACGTGAC | 3.17 ± 0.24 |
| GCGACGTTGC | 0.999 ± 0.036 |
| GCGAGAGCTG | 0.992 ± 0.017 |
| GCGAGAGGGT | 0.974 ± 0.025 |
| GCGAGAGTGT | 0.99552 ± 0.00015 |
| GCGAGCCAGG | 2.169 ± 0.011 |
| GCGAGCGAAA | 0.982 ± 0.019 |
| GCGAGGCCCG | 0.9944 ± 0.0017 |

| Sequence | switch fluorescence ratio |
| --- | --- |
| GCGAGGGAGG | 1.02 ± 0.052 |
| GCGAGGGGCT | 0.9717 ± 0.0031 |
| GCGAGGTGCA | 1.03 ± 0.055 |
| GCGAGGTGGT | 1.001 ± 0.0076 |
| GCGAGGTTGA | 1.045 ± 0.0015 |
| GCGAGTAGG | 1.06 ± 0.056 |
| GCGAGTGTGA | 1 ± 0.036 |
| GCGATAAACC | 1.1929 ± 0.00026 |
| GCGATAAGAT | 1.0048 ± 0.00093 |
| GCGATACTGT | 3.08 ± 0.17 |
| GCGATAGCTC | 0.973 ± 0.043 |
| GCGATATCTT | 1.04 ± 0.029 |
| GCGATCTGGA | 1.04 ± 0.022 |
| GCGATGGGGA | 1.012 ± 0.0098 |
| GCGATTGGAG | 1.01 ± 0.034 |
| GCGCAACAGG | 1.04 ± 0.015 |
| GCGCAGACTT | 1.15 ± 0.034 |
| GCGCCAAGAG | 1.29 ± 0.11 |
| GCGCCGGAG | 1.0019 ± 0.00089 |
| GCGCGACGGA | 0.9905 ± 0.0014 |
| GCGCGCGACT | 1.002 ± 0.0092 |
| GCGCGCGATT | 0.997 ± 0.025 |
| GCGCGGCTGG | 1.02 ± 0.00077 |

| Sequence | switch fluorescence ratio |
| --- | --- |
| GCGCTACGGG | 1.01 ± 0.019 |
| GCGCTAGGTG | 2.19 ± 0.12 |
| GCGCTCATAG | 1.15 ± 0.018 |
| GCGCTCCGGG | 1.09 ± 0.072 |
| GCGCTGGGCA | 1.01 ± 0.035 |
| GCGCTTCAA | 0.971 ± 0.014 |
| GCGCTTGGGG | 0.982 ± 0.011 |
| GCGCTTTTTT | 0.9898 ± 0.00075 |
| GCGGAAAAAC | 1.02 ± 0.058 |
| GCGGAAGATC | 1.03 ± 0.021 |
| GCGGAAGGAG | 1 ± 0.016 |
| GCGGAATGGA | 1.02 ± 0.013 |
| GCGGAGAGGT | 1.03 ± 0.022 |
| GCGGAGCTTT | 1.01 ± 0.015 |
| GCGGATGCTT | 0.9718 ± 0.0056 |
| GCGGCACAAT | 1.05 ± 0.013 |
| GCGGCACGTG | 0.97 ± 0.048 |
| GCGGCCCTGG | 1.008 ± 0.0064 |
| GCGGCCTCTT | 0.993 ± 0.013 |
| GCGGCCTGGG | 1.02 ± 0.049 |
| GCGGCCTTAC | 2.42 ± 0.4 |
| GCGGCGGCAG | 0.9761 ± 0.0088 |
| GCGGGAAGCT | 1.05 ± 0.044 |

| Sequence | switch fluorescence ratio |
| --- | --- |
| GCGGGAATGA | 1 ± 0.045 |
| GCGGGAGATG | 1.04 ± 0.018 |
| GCGGGAGTCC | 1.13 ± 0.2 |
| GCGGGATATG | 0.994 ± 0.019 |
| GCGGGATGGG | 1.08 ± 0.07 |
| GCGGGCGGCC | 0.9812 ± 0.0082 |
| GCGGGCTGAA | 0.962 ± 0.014 |
| GCGGGGCAGC | 1.001 ± 0.0068 |
| GCGGGGCCAC | 1.2 ± 0.26 |
| GCGGGGGAAA | 1.02 ± 0.09 |
| GCGGGGGAG | 1.01 ± 0.059 |
| GCGGGGGCGT | 1 ± 0.03 |
| GCGGGGGGAT | 1.02 ± 0.017 |
| GCGGGGGGGA | 1.01 ± 0.038 |
| GCGGGGGTTA | 0.994 ± 0.018 |
| GCGGGGGTTT | 1.15 ± 0.28 |
| GCGGGGTATG | 0.9908 ± 0.008 |
| GCGGGGTCCG | 0.97126 ± 0.00059 |
| GCGGGGTTTC | 1.03 ± 0.059 |
| GCGGGTAGCA | 1.04 ± 0.029 |
| GCGGGTTACT | 1.053 ± 0.0028 |
| GCGGTAGCAG | 0.979 ± 0.024 |
| GCGGTAGTAC | 1.14 ± 0.013 |

| Sequence | switch fluorescence ratio |
| --- | --- |
| GCGGTCGGGC | 0.9952 ± 0.0076 |
| GCGGTGAGAA | 0.983 ± 0.028 |
| GCGGTGAGGC | 0.9709 ± 0.0056 |
| GCGGTGATGG | 1 ± 0.035 |
| GCGGTGCGGG | 0.9878 ± 0.0042 |
| GCGGTGGGTT | 0.9862 ± 0.0096 |
| GCGGTGTTTT | 1.03 ± 0.05 |
| GCGGTTCCTC | 1.05 ± 0.027 |
| GCGGTTGGAA | 0.9927 ± 0.0034 |
| GCGGTTTTTT | 1.22 ± 0.35 |
| GCGTAACAGT | 0.964 ± 0.045 |
| GCGTAAGTGC | 1.092 ± 0.006 |
| GCGTACCAAT | 1.067 ± 0.0033 |
| GCGTAGGGG | 0.967 ± 0.028 |
| GCGTATAGGA | 1.01 ± 0.035 |
| GCGTATAGGG | 0.964 ± 0.033 |
| GCGTATTGAG | 1.02 ± 0.022 |
| GCGTATTTTT | 1.01 ± 0.029 |
| GCGTCAATTA | 1.08 ± 0.03 |
| GCGTCGATTA | 0.96 ± 0.015 |
| GCGTCTAGGA | 0.9839 ± 0.0033 |
| GCGTCTATGA | 1 ± 0.016 |
| GCGTGAGCGA | 0.985 ± 0.042 |

| Sequence | switch fluorescence ratio |
| --- | --- |
| GCGTGATTTG | 0.9959 ± 0.0045 |
| GCGTGGAGA | 1 ± 0.03 |
| GCGTGGGGGT | 1.01 ± 0.012 |
| GCGTTAACTC | 1.08 ± 0.026 |
| GCGTTAAGGG | 0.964 ± 0.053 |
| GCGTTAAGTA | 1.005 ± 0.0085 |
| GCGTTAAGTT | 0.984 ± 0.035 |
| GCGTTAGGCG | 1.01 ± 0.044 |
| GCGTTATAAG | 1.01 ± 0.049 |
| GCGTTCAGGC | 0.994 ± 0.063 |
| GCGTTCCTTA | 0.971 ± 0.024 |
| GCGTTGCCAG | 0.9816 ± 0.0081 |
| GCGTTTCCTC | 1.08 ± 0.033 |
| GCGTTTCGGA | 1 ± 0.02 |
| GCGTTTGCAT | 1.03 ± 0.034 |
| GCGTTTTTGG | 0.998 ± 0.029 |
| GCGTTTTTTT | 0.98972 ± 0.0007 |
| GCTAAAACCT | 2.25 ± 0.23 |
| GCTAAATTCC | 1.11 ± 0.027 |
| GCTAACAGAG | 0.984 ± 0.035 |
| GCTAACCCTT | 1.06 ± 0.0036 |
| GCTAACGGAG | 1.0112 ± 0.00048 |
| GCTAATTGGC | 1.04 ± 0.098 |

| Sequence | switch fluorescence ratio |
| --- | --- |
| GCTACCGTTT | 1.04 ± 0.041 |
| GCTACGACGG | 1.05 ± 0.012 |
| GCTACTGGCC | 1.02 ± 0.039 |
| GCTACTTTGG | 1.06 ± 0.048 |
| GCTAGATCGT | 0.969 ± 0.033 |
| GCTAGGAACT | 0.979 ± 0.019 |
| GCTAGGAGTA | 0.987 ± 0.0091 |
| GCTAGGCCTC | 1.01 ± 0.038 |
| GCTAGGCTGG | 0.97301 ± 0.0002 |
| GCTAGGGCTT | 1.01 ± 0.062 |
| GCTAGTAAGT | 0.9819 ± 0.0063 |
| GCTAGTGCTT | 0.956 ± 0.011 |
| GCTAGTGGC | 0.985 ± 0.079 |
| GCTAGTTTCG | 1.03 ± 0.019 |
| GCTATATGTG | 0.98 ± 0.069 |
| GCTATATTGG | 0.9933 ± 0.0091 |
| GCTATGGTGC | 1.026 ± 0.0038 |
| GCTATTAGGA | 0.984 ± 0.033 |
| GCTATTATAC | 1.47 ± 0.0019 |
